Literature values, collected in publication PMC8508339.

Tests used:
[1] = biological target: gastrin (Homo sapiens) (UniProt P01350)
[2] = biological target: cholecystokinin (Homo sapiens) (UniProt P06307)
UniProt P06307, sequence (P06307 whole entry, looked up): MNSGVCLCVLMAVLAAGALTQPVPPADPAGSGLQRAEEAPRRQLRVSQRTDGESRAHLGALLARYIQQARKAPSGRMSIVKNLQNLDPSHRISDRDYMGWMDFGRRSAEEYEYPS

UniProt P01350, sequence (P01350 whole entry, looked up): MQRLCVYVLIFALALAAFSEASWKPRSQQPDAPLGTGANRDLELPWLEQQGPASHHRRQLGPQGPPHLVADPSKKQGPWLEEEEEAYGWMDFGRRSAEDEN

For “CCK-B receptor (CCK2) (from UniProt P32239)”, the Kd [1] is given as 1 nM and the Kd [2] is given as 1 nM.
